{"source": "patent US10995116B2", "about": "“Peptide-induced NK cell activation” (University of Southampton, priority 2014, dated 2021)", "key": {"KIR2DS2 [1]": {"target": "T1, KIR2DS2 (Homo sapiens, UniProt P43631)", "test": "pVav1/Vav1 Western blot, KIR2DS2-transfected NK cell line plus peptide-loaded HLA-C*0304:ICP47:721.221 cells", "assay_type": "cell-based", "design": "expressed in transfected cells; host or cells: NKL cell line transfected with KIR2DS2; target cells L721.221-HLA-C*0304-ICP47", "details": "peptide 20 μM, 5 minutes", "experimental": "FIG. 7 1×10^6 L721.221-HLA-C*0304-ICP47 cells were incubated overnight at 26° C. with indicated peptides at a concentration of 20 μM. The cells were then incubated with the NKL cell line transfected with KIR2DS2 or transfected with KIR2DL2 for 5 minutes. The cells were lysed in 1% NP-40 and then analysed by Western blotting using antibodies to pVav1 and then following stripping of the membrane to Vav1. Shown are Western blots around the 98 kDa region, and below them the corresponding densitometries for 2 independent experiments.\nWith reference to FIG. 7, 1×10^6 HLA-C*0304:ICP47:721.221 cells were incubated overnight at 26° C. with indicated peptides at a concentration of 20 μM. The cells were then incubated with the NK cell line transfected with KIR2DS2 for 5 minutes. The cells were lysed in 1% NP-40 and then analysed by Western blotting using antibodies to pVav1 and then following stripping of the membrane to Vav1. Shown is a Western blots around the 98kDa region, and below them the corresponding densitometries for 3 independent experiments."}, "HLA-C*0102": {"target": "HLA-C*0102 (Homo sapiens, UniProt P10321, A176E/A330V/A35S/A97T/C350S/D114A/D33F/L171W/L180R/L218V/M285V/M309V/M331V/P208H/Q277E/Q291P/R121W/R243W/R30K/S123C/S140Y/S297R/T329A/T363A/V272M/V319A)", "test": "HPLC of HLA-C binding peptides eluted from 721.221 cells expressing HLA-C*0102:T2A:E19/3K:LNPSVAATL", "details": "peak in the eluate at the retention time of the control peptide", "experimental": "FIG. 8 The MHC class I-negative 721.221 cell line was transfected with a construct expressing HLA-C*0102:T2A:E19/3K:LNPSVAATL (SEQ ID NO: 1). The cells were washed and then the HLA-C binding peptides eluted using 10% acetic acid. The eluate was analysed by HPLC using a C18 column and a 4-60% acetonitrile gradient. The resulting profile was compared to the profile of the LNPSVAATL (SEQ ID NO: 1) peptide alone. The peptide elution peak is indicated with an arrow.\nThe cell line 721.221 expressing HLA-C*0102:T2A:E19/3K:LNPSVAATL. Following elution of the HLA-C binding peptides using 10% acetic acid the peptides were analysed by HPLC using a C18 column and an acetonitrile gradient."}, "L721.174 cells": {"test_system": "L721.174 cells", "test": "Cytotoxicity of NK cell clones against peptide-loaded L721.174 cells (Live/Dead fixable far-red stain)", "assay_type": "cell-based", "details": "KIR2DS2-positive NK cell clones 4, 6, 9 only; not KIR2DS2-negative clone 27", "experimental": "(§1) L721.174 cells were incubated in the presence or absence of the peptides VAPWNSFAL (SEQ ID NO: 49) and the LNPSVAATL (SEQ ID NO: 1). The cells were then labeled with the cell tracker orange dye, and then cultured with KIR2DS2-positive NK cell clones (clones 4,6,9) or a KIR2DS2-negative NK cell clone (clone 27). Cytotoxicity was then determined using Live/Dead® fixable far-red stain.\nas §1, with “With reference to FIG. 3, 3×10^5 L721.174” for “L721.174”, “incubated at 26° C. overnight” for “incubated”, “cultured for four hours” for “cultured”"}, "[2]": {"test_system": "NK cells from KIR2DS2-positive or KIR2DS2-negative donor", "test": "CD107a (LAMP) degranulation of CH-L antibody positive NK cells cultured with peptide-loaded L721.174 cells", "assay_type": "cell-based", "experimental": "A. cells were incubated in the presence or absence of peptides, and then cultured with NK cells from either a KIR2DS2-positive or KIR2DS2-negative donor. The level of CD107a (LAMP) expression was measured on NK cells positive for the CH-L antibody. This antibody binds to KIR2DS2, KIR2DL2 and KIR2DL3. B. Summary data from 5 KIR2DS2-positive and 6 KIR2DS2-negative donors tested as per panel A of FIG. 2. To compare the different donors the data are normalized to 100% for the no peptide condition.\nWith reference to FIG. 2A, 3×10^5 L721.174 cells were incubated at 26° C. overnight in the presence or absence of peptides, and then cultured for four hours with NK cells from either a KIR2DS2-positive or KIR2DS2-negative donor. The level of CD107a (LAMP) expression was measured on NK cells positive for the CH-L antibody. This antibody binds to KIR2DS2, KIR2DL2 and KIR2DL3. […] With reference to FIG. 2B, summary data from 5 KIR2DS2-positive and 6 KIR2DS2-negative donors were tested as per panel A of FIG. 2. To compare the different donors the data are normalized to 100% for the no peptide condition."}, "[3]": {"test_system": "NK cells expressing KIR2DS2", "test": "pVav1/Vav1 Western blot, NK cell line transfected with KIR2DS2 or KIR2DL2 plus peptide-loaded L721.174 cells", "assay_type": "cell-based", "details": "peptide 20 μM, 5 minutes", "experimental": "(§2) FIG. 6 LNPSVAATL (SEQ ID NO: 1) activates NK cells expressing KIR2DS2. A. L721.174 cells were incubated with indicated peptides. The cells were then incubated with the NK cell line transfected with KIR2DS2. The cells were lysed and the KIR2DS2 was then immunoprecipitated from the mixture using the GL183 antibody coupled to protein-G beads. The immune precipitate was analysed by Western blotting using a phosphotyrosine antibody. The membrane was then stripped and reprobed with an antibody to DAP12 the molecule that transduces a positive signal from KIR2DS2. Shown are the regions on the blots at the level of DAP12 (12-15kDa). B. L721.174 cells were incubated with indicated peptides. The cells were then incubated with the NK cell line transfected with KIR2DS2 or transfected with KIR2DL2. The cells were lysed in 1% NP-40 and then analysed by Western blotting using antibodies to pVav1 and then following stripping of the membrane to Vav1. […]\n(§3) With reference to FIG. 6A, 1×10^6 L721.174 cells were incubated overnight at 26° C. with indicated peptides at a concentration of 20 μM. […] The immune precipitate was analysed by Western blotting using a phosphotyrosine antibody. […] The cells were lysed in 1% NP-40 and then analysed by Western blotting using antibodies to pVav1 and then following stripping of the membrane to Vav1. […]"}, "KIR2DS2 [4]": {"target": "T1, KIR2DS2", "test": "KIR2DS2-PE tetramer staining of peptide-loaded L721.174 cells by flow cytometry", "assay_type": "binding", "design": "made in house", "details": "peptide 200 μM overnight at 26° C.", "experimental": "(SEQ ID NO: 1) peptide. A. The KIR2DS2 protein was expressed with a biotinylation C-terminal tag. Following biotinylation with the BirA enzyme, the KIR2DS2 protein was incubated with streptavidin-phycoerythrin to form fluorescent KIR2DS2-tetramers (KIR2DS2-PE). L721.174 cells were then incubated with indicated peptides. Cells were then stained with KIR2DS2-PE and analysed by flow cytometry. Shown are histogram plots. The bold numbers represent the mean fluorescent staining intensity of the KIR2DS2-PE staining of the cells in the presence of peptide and the non-bold numbers the staining in the absence of peptide. B. Represents the mean and standard error fluorescent intensities of the experiment in “A” following replicate experiments.\nA. L721.174 cells were incubated with indicated peptides. Cells were then stained with KIR2DS2-PE (see FIG. 4) and analysed by flow cytometry. Shown are histogram plots. […]\nWith reference to FIG. 4A, the KIR2DS2 protein was expressed as a recombinant protein with a biotinylation C-terminal tag. […] Cells were then stained with KIR2DS2-PE and analysed by flow cytometry. […]\nWith reference to FIG. 5A, 3×10^5 L721.174 cells were incubated overnight at 26° C. with indicated peptides at a concentration of 200 μM. Cells were then stained with KIR2DS2-PE (see FIG. 4) and analysed by flow cytometry. […]"}, "HLA-Cw*0102 [5]": {"target": "T2, HLA-Cw*0102 (Homo sapiens, UniProt P10321, A176E/A330V/A35S/A97T/C350S/D114A/D33F/L171W/L180R/L218V/M285V/M309V/M331V/P208H/Q277E/Q291P/R121W/R243W/R30K/S123C/S140Y/S297R/T329A/T363A/V272M/V319A)", "test": "Peptide binding to HLA-Cw*0102: cell surface MHC class I staining of L721.174 cells by flow cytometry", "assay_type": "cell-based", "details": "increasing peptide concentrations, overnight at 26° C.", "experimental": "(§4) The HLA-Cw*0102-positive cell line L721.174 was incubated with increasing concentrations of the LNPSVAATL (SEQ ID NO: 1) peptide or a control peptide VAPWNSLSL (SEQ ID NO: 48). Cells were stained for cell surface of MHC class I and analysed by flow cytometry. The mean fluorescence intensity of cell surface MHC Class I was plotted against the peptide concentration.\nas §4, with “With reference to FIG. 1, the HLA-Cw*0102-positive” for “The HLA-Cw*0102-positive”, “NO: 48) (known to bind HLA-Cw*0102) overnight at 26° C. 3×10^5 cells were used per condition. Following washing in PBS the cells” for “NO: 48). Cells”"}, "DAP12": {"test_system": "DAP12", "test": "DAP12 phosphorylation: KIR2DS2 immunoprecipitation and phosphotyrosine Western blot, NK cell line transfected with KIR2DS2 plus peptide-loaded L721.174 cells", "assay_type": "cell-based", "details": "peptide 20 μM, 5 minutes", "experimental": "as §2, §3"}, "HLA-Cw*0102 [6]": {"target": "T2, HLA-Cw*0102", "details": "control peptide, stated as known; cited from earlier work"}}, "note": "Read-outs that look alike come from different tables or passages of the source.", "data": [{"sequence": "GAVPDLATL (listed as Homo sapiens)", "values": [{"measurement": "activation of KIR2DS2 (pVav1)", "setting": "KIR2DS2 [1]", "value": "Activated"}]}, {"sequence": "GAVPDLAWL (listed as Homo sapiens)", "values": [{"measurement": "activation of KIR2DS2 (pVav1)", "setting": "KIR2DS2 [1]", "value": "Activated"}]}, {"sequence": "LNPSVAATL (listed as Homo sapiens)", "values": [{"measurement": "endogenous processing and presentation from construct", "setting": "HLA-C*0102", "value": "endogenously processed and presented"}, {"measurement": "killing of L721.174 cells as compared to no peptide or the VAPWNSFAL peptide", "setting": "L721.174 cells", "value": "killed the L721.174 cell line to greater extent"}, {"measurement": "level of CD107a degranulation as compared to no peptide", "setting": "[2]; NK cells from KIR2DS2-positive donors", "value": "higher levels of degranulation"}, {"measurement": "level of CD107a degranulation as compared to the VAPWNSFAL peptide alone", "setting": "[2]; NK cells from KIR2DS2-positive donors, LNPSVAATL in combination with VAPWNSFAL", "value": "higher levels of degranulation"}, {"measurement": "activation of NK cells expressing KIR2DS2", "setting": "[3]", "value": "Activates"}, {"measurement": "KIR2DS2 binding to HLA-C*0102 and peptide (KIR2DS2-PE staining)", "setting": "KIR2DS2 [4]", "value": "Binds"}, {"measurement": "binding to HLA-Cw*0102", "setting": "HLA-Cw*0102 [5]", "value": "Binds"}, {"measurement": "phosphorylation of DAP12", "setting": "DAP12", "value": "induces phosphorylation of DAP12"}]}, {"sequence": "VAPWNSFAL (listed as Homo sapiens) [reference compound]", "values": [{"measurement": "level of CD107a degranulation as compared to no peptide", "setting": "[2]; NK cells from both donors (KIR2DS2-positive and KIR2DS2-negative)", "value": "lower levels of degranulation"}]}, {"sequence": "VAPWNSLSL (listed as Homo sapiens)", "values": [{"measurement": "binding to HLA-Cw*0102", "setting": "HLA-Cw*0102 [6]", "value": "known to bind"}]}]}
